In patent US20230272056A1 (Merck Sharp & Dohme, published 2023):

B1: VL R53E (31BIT) (Fab, V domains shown)
VH: EVQLVQSGAEVKKPGASVKVSCKASGYTFTSYWMHWVRQAPGQGLEWMGRIDPQSGGIKYAQKFQGRATLTVDTSTSTAYMELSRLRSDDTAVYYCARWDYGGYFDVWGQGTLVTVSS
VL: DIQMTQSPSSLSASVGDRVTITCRASQDITNYLNWYQQKPGKAVKLLIYYTSELHSGVPSRFSGSGSGTDYTLTISSLQPEDFATYFCQQGDTLPWTFGQGTKLEIKR
notes: Heavy chain: parental 20E6 Fab HC, implied
B2: VH S55E (26BIT) (Fab, V domains shown)
VH: EVQLVQSGAEVKKPGASVKVSCKASGYTFTSYWMHWVRQAPGQGLEWMGRIDPQEGGIKYAQKFQGRATLTVDTSTSTAYMELSRLRSDDTAVYYCARWDYGGYFDVWGQGTLVTVSS
VL: DIQMTQSPSSLSASVGDRVTITCRASQDITNYLNWYQQKPGKAVKLLIYYTSRLHSGVPSRFSGSGSGTDYTLTISSLQPEDFATYFCQQGDTLPWTFGQGTKLEIKR
notes: Light chain: parental 20E6 LC, implied
B3: VH S31R (25BIT) (Fab, V domains shown)
VH: EVQLVQSGAEVKKPGASVKVSCKASGYTFTRYWMHWVRQAPGQGLEWMGRIDPQSGGIKYAQKFQGRATLTVDTSTSTAYMELSRLRSDDTAVYYCARWDYGGYFDVWGQGTLVTVSS
VL: DIQMTQSPSSLSASVGDRVTITCRASQDITNYLNWYQQKPGKAVKLLIYYTSRLHSGVPSRFSGSGSGTDYTLTISSLQPEDFATYFCQQGDTLPWTFGQGTKLEIKR
notes: as for B2
B4: VL T30D (37BIT) (Fab, V domains shown)
VH: EVQLVQSGAEVKKPGASVKVSCKASGYTFTSYWMHWVRQAPGQGLEWMGRIDPQSGGIKYAQKFQGRATLTVDTSTSTAYMELSRLRSDDTAVYYCARWDYGGYFDVWGQGTLVTVSS
VL: DIQMTQSPSSLSASVGDRVTITCRASQDIDNYLNWYQQKPGKAVKLLIYYTSRLHSGVPSRFSGSGSGTDYTLTISSLQPEDFATYFCQQGDTLPWTFGQGTKLEIKR
notes: as for B1
B5: VH H35K (30BIT) (Fab, V domains shown)
VH: EVQLVQSGAEVKKPGASVKVSCKASGYTFTSYWMKWVRQAPGQGLEWMGRIDPQSGGIKYAQKFQGRATLTVDTSTSTAYMELSRLRSDDTAVYYCARWDYGGYFDVWGQGTLVTVSS
VL: DIQMTQSPSSLSASVGDRVTITCRASQDITNYLNWYQQKPGKAVKLLIYYTSRLHSGVPSRFSGSGSGTDYTLTISSLQPEDFATYFCQQGDTLPWTFGQGTKLEIKR
notes: as for B2
B6: VH H35R (62BIT) (Fab, V domains shown)
VH: EVQLVQSGAEVKKPGASVKVSCKASGYTFTSYWMRWVRQAPGQGLEWMGRIDPQSGGIKYAQKFQGRATLTVDTSTSTAYMELSRLRSDDTAVYYCARWDYGGYFDVWGQGTLVTVSS
VL: DIQMTQSPSSLSASVGDRVTITCRASQDITNYLNWYQQKPGKAVKLLIYYTSRLHSGVPSRFSGSGSGTDYTLTISSLQPEDFATYFCQQGDTLPWTFGQGTKLEIKR
notes: as for B2
B7: VL R53D (35BIT) (Fab, V domains shown)
VH: EVQLVQSGAEVKKPGASVKVSCKASGYTFTSYWMHWVRQAPGQGLEWMGRIDPQSGGIKYAQKFQGRATLTVDTSTSTAYMELSRLRSDDTAVYYCARWDYGGYFDVWGQGTLVTVSS
VL: DIQMTQSPSSLSASVGDRVTITCRASQDITNYLNWYQQKPGKAVKLLIYYTSDLHSGVPSRFSGSGSGTDYTLTISSLQPEDFATYFCQQGDTLPWTFGQGTKLEIKR
notes: as for B1
B8: VH K59W (61BIT) (Fab, V domains shown)
VH: EVQLVQSGAEVKKPGASVKVSCKASGYTFTSYWMHWVRQAPGQGLEWMGRIDPQSGGIWYAQKFQGRATLTVDTSTSTAYMELSRLRSDDTAVYYCARWDYGGYFDVWGQGTLVTVSS
VL: DIQMTQSPSSLSASVGDRVTITCRASQDITNYLNWYQQKPGKAVKLLIYYTSRLHSGVPSRFSGSGSGTDYTLTISSLQPEDFATYFCQQGDTLPWTFGQGTKLEIKR
notes: as for B2
B9: VL T30E (36BIT) (Fab, V domains shown)
VH: EVQLVQSGAEVKKPGASVKVSCKASGYTFTSYWMHWVRQAPGQGLEWMGRIDPQSGGIKYAQKFQGRATLTVDTSTSTAYMELSRLRSDDTAVYYCARWDYGGYFDVWGQGTLVTVSS
VL: DIQMTQSPSSLSASVGDRVTITCRASQDIENYLNWYQQKPGKAVKLLIYYTSRLHSGVPSRFSGSGSGTDYTLTISSLQPEDFATYFCQQGDTLPWTFGQGTKLEIKR
notes: as for B1
B10: VL L94Q (33BIT) (Fab, V domains shown)
VH: EVQLVQSGAEVKKPGASVKVSCKASGYTFTSYWMHWVRQAPGQGLEWMGRIDPQSGGIKYAQKFQGRATLTVDTSTSTAYMELSRLRSDDTAVYYCARWDYGGYFDVWGQGTLVTVSS
VL: DIQMTQSPSSLSASVGDRVTITCRASQDITNYLNWYQQKPGKAVKLLIYYTSRLHSGVPSRFSGSGSGTDYTLTISSLQPEDFATYFCQQGDTQPWTFGQGTKLEIKR
notes: as for B1
B11: VL L94D (32BIT) (Fab, V domains shown)
VH: EVQLVQSGAEVKKPGASVKVSCKASGYTFTSYWMHWVRQAPGQGLEWMGRIDPQSGGIKYAQKFQGRATLTVDTSTSTAYMELSRLRSDDTAVYYCARWDYGGYFDVWGQGTLVTVSS
VL: DIQMTQSPSSLSASVGDRVTITCRASQDITNYLNWYQQKPGKAVKLLIYYTSRLHSGVPSRFSGSGSGTDYTLTISSLQPEDFATYFCQQGDTDPWTFGQGTKLEIKR
notes: as for B1
B12: VH S31K (24BIT) (Fab, V domains shown)
VH: EVQLVQSGAEVKKPGASVKVSCKASGYTFTKYWMHWVRQAPGQGLEWMGRIDPQSGGIKYAQKFQGRATLTVDTSTSTAYMELSRLRSDDTAVYYCARWDYGGYFDVWGQGTLVTVSS
VL: DIQMTQSPSSLSASVGDRVTITCRASQDITNYLNWYQQKPGKAVKLLIYYTSRLHSGVPSRFSGSGSGTDYTLTISSLQPEDFATYFCQQGDTLPWTFGQGTKLEIKR
notes: as for B2
B13: VL R53I (34BIT) (Fab, V domains shown)
VH: EVQLVQSGAEVKKPGASVKVSCKASGYTFTSYWMHWVRQAPGQGLEWMGRIDPQSGGIKYAQKFQGRATLTVDTSTSTAYMELSRLRSDDTAVYYCARWDYGGYFDVWGQGTLVTVSS
VL: DIQMTQSPSSLSASVGDRVTITCRASQDITNYLNWYQQKPGKAVKLLIYYTSILHSGVPSRFSGSGSGTDYTLTISSLQPEDFATYFCQQGDTLPWTFGQGTKLEIKR
notes: Heavy chain: parental 20E6 Fab HC, implied; also called VL R531 (34BIT)
B14: VH K59Q (28BIT) (Fab, V domains shown)
VH: EVQLVQSGAEVKKPGASVKVSCKASGYTFTSYWMHWVRQAPGQGLEWMGRIDPQSGGIQYAQKFQGRATLTVDTSTSTAYMELSRLRSDDTAVYYCARWDYGGYFDVWGQGTLVTVSS
VL: DIQMTQSPSSLSASVGDRVTITCRASQDITNYLNWYQQKPGKAVKLLIYYTSRLHSGVPSRFSGSGSGTDYTLTISSLQPEDFATYFCQQGDTLPWTFGQGTKLEIKR
notes: as for B2
B15: parental 20E6 humanized antibody (antibody, IgG1, V domains shown)
VH: EVQLVQSGAEVKKPGASVKVSCKASGYTFTSYWMHWVRQAPGQGLEWMGRIDPQSGGIKYAQKFQGRATLTVDTSTSTAYMELSRLRSDDTAVYYCARWDYGGYFDVWGQGTLVTVSS
VL: DIQMTQSPSSLSASVGDRVTITCRASQDITNYLNWYQQKPGKAVKLLIYYTSRLHSGVPSRFSGSGSGTDYTLTISSLQPEDFATYFCQQGDTLPWTFGQGTKLEIK
B16: 08BLM (antibody, human IgG1, kappa, L234A L235A, V domains shown)
VH: EVQLVQSGAEVKKPGASVKVSCKASGYTFTSYDMHWVRQAPGQGLEWMGRIDPQSGGTKYAQKFQGRATLTVDTSTSTAYMELSRLRSDDTAVYYCARWDYGGQFDVWGQGTLVTVSS
VL: DIQMTQSPSSLSASVGDRVTITCRASQDIYNYLNWYQQKPGKAVKLLIYYTSGLETGVPSRFSGSGSGTDYTLTISSLQPEDFATYFCQQGDTLPWTFGQGTKLEIKR
B17: 09BLM (antibody, human IgG1, kappa, L234A L235A, V domains shown)
VH: EVQLVQSGAEVKKPGASVKVSCKASGYTFTSYDMHWVRQAPGQGLEWMGRIDPISGGIKYAQKFQGRATLTVDTSTSTAYMELSRLRSDDTAVYYCARWDYGGYFDVWGQGTLVTVSS
VL: DIQMTQSPSSLSASVGDRVTITCRASQDIFNYLNWYQQKPGKAVKLLIYYTSHLETGVPSRFSGSGSGTDYTLTISSLQPEDFATYFCQQGDTLPWTFGQGTKLEIKR
B18: 10BLM (antibody, human IgG1, kappa, L234A L235A, V domains shown)
VH: EVQLVQSGAEVKKPGASVKVSCKASGYTFTSYDMHWVRQAPGQGLEWMGRIDPQSGGTKYAQKFQGRATLTVDTSTSTAYMELSRLRSDDTAVYYCARWDYGGYFDVWGQGTLVTVSS
VL: DIQMTQSPSSLSASVGDRVTITCRASQDIYNYLNWYQQKPGKAVKLLIYYTSVLETGVPSRFSGSGSGTDYTLTISSLQPEDFATYFCQQGDTLPWTFGQGTKLEIKR

Each binder was assayed against T1, human LAP-TGFB1 Fc fusion (human) (assay: BLI off-rate screen).
T1 construct: also called human LAP-TGFβ1-Fc; human LAP-TGFβ-Fc isoform 1
Description: The Fab mutants including a positive control, 20E6 Fab, and a negative control Fab (Molecular Innovations, catalog HU-FAB-4510) were diluted to 200 nM in assay buffer and loaded to FAB2G sensors for 180 seconds followed by a one-hour incubation at room temperature in assay buffer to equilibrate the tips. The Fab loaded sensors were assessed for binding with 100 nM human LAP-TGFβ for 180 seconds followed by a 180 second dissociation phase in assay buffer on a ForteBio HTX (software version 9.0.0.66). Non-specific binding to the negative control Fab was subtracted and the binding sensorgrams were aligned to the start of the association phase on the X and Y axis. The Fab binding was fit with the 1:1 binding model, dissociation phase only, with local fitting using ForteBio Data Analysis 9.0 software.

T1 sequence (chain, as listed by the source limits assumed): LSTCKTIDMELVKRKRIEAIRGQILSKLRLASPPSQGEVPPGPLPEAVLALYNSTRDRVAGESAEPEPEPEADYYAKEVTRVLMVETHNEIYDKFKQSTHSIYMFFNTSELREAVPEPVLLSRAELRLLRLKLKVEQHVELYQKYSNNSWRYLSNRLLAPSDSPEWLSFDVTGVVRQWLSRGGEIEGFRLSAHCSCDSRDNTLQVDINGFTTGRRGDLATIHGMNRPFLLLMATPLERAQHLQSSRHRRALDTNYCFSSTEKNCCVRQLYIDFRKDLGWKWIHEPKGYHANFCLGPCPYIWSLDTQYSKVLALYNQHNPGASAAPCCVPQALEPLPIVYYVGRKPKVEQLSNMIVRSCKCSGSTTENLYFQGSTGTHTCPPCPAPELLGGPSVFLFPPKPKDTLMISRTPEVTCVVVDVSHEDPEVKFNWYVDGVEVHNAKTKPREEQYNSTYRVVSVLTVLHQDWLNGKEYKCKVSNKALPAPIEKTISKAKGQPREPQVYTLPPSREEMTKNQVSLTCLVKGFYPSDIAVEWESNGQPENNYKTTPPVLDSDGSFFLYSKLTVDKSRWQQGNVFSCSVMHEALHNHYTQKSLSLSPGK

Row | Binder | Binding response | Fold change | koff | binding result
1 | B1 | 0.664 nm | 1.5 fold | 0.0286 s⁻¹ | 
2 | B2 | 0.489 nm | 0.8 fold | 0.0519 s⁻¹ | 
3 | B3 | 0.069 nm | 1 fold | 0.0437 s⁻¹ | 
4 | B4 | 0.182 nm | 1.1 fold | 0.0402 s⁻¹ | 
5 | B5 | 0.115 nm | 0.8 fold | 0.0548 s⁻¹ | 
6 | B6 | 0.021 nm |  |  | no binding (tested: 100 nM antigen)
7 | B7 | 0.398 nm | 1.2 fold | 0.0341 s⁻¹ | 
8 | B8 | 0.035 nm |  |  | no binding (tested: 100 nM antigen)
9 | B9 | 0.439 nm | 1 fold | 0.0405 s⁻¹ | 
10 | B10 | 0.341 nm | 0.7 fold | 0.0583 s⁻¹ | 
11 | B11 | 0.195 nm | 0.7 fold | 0.0618 s⁻¹ | 
12 | B12 | 0.625 nm | 1.1 fold | 0.037 s⁻¹ | 
13 | B13 | 0.757 nm | 1.7 fold | 0.0246 s⁻¹ | 
14 | B14 | 0.165 nm | 0.7 fold | 0.0596 s⁻¹ | 

These binders were tested against human LAP-TGFβ1 expressed on P3U1 cells (human, UniProt P01137 30-390) (assay: cell-based or functional assay).
Chain of human LAP-TGFβ1 expressed on P3U1 cells (P01137 30-390): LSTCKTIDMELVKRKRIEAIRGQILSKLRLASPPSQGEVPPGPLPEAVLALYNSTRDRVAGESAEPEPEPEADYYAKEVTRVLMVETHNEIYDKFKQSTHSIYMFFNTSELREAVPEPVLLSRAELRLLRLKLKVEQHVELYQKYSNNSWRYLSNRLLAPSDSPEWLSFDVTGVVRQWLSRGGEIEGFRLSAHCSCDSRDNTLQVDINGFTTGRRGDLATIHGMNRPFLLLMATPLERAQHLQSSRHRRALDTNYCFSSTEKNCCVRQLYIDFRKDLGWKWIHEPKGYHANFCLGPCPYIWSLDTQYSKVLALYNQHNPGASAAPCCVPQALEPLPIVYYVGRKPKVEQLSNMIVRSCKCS

Row | Binder | Average EC50 | ELISA assay 2 EC50 | ELISA assay #1 EC50
15 | B15 | 5.64 µg/mL | 8.9 µg/mL | 2.38 µg/mL
16 | B16 | 0.076 µg/mL | 0.098 µg/mL | 0.0539 µg/mL
17 | B17 | 0.08 µg/mL | 0.13 µg/mL | 0.0295 µg/mL
18 | B18 | 0.083 µg/mL | 0.134 µg/mL | 0.0332 µg/mL
